Reference: PMC10641069, “Intra- and inter-molecular regulation by intrinsically-disordered regions governs PUF protein RNA binding” (Nature Communications, 2023)
Positions count from the first letter of the chain named.

Experiments:
Assay in all cases: EMSA; no LST-1; EMSA: FBF-2 in 20 mM HEPES pH 7.4, 150 mM NaCl, 0.5 mM TCEP mixed 1:1 with 5 nM final RNA in 10 mM HEPES pH 7.4, 0.01% Tween 20, 0.1 mg/ml BSA, 0.1 mg/ml yeast
FBF-2 RBD+CT = target: T1, FBF-2 RBD+CT (Caenorhabditis elegans, UniProt Q09312 164-632); conditions: protein: recombinant; tags: none (His6-SUMO removed with Ulp1); label: 3'-Cy5
T1 sequence: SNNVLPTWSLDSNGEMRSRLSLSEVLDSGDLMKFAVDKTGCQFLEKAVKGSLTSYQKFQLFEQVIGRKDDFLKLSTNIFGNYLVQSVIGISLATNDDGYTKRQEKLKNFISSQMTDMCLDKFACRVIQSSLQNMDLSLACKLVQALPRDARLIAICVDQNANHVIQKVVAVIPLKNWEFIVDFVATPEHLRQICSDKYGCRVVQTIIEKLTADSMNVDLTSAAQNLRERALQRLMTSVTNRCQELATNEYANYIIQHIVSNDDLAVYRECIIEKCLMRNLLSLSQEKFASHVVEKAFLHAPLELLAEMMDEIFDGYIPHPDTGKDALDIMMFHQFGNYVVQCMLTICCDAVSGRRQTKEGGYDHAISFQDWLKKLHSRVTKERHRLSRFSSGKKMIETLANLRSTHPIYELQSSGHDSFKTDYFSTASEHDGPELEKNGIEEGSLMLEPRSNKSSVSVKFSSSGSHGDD

FBF-2 RBD = target: T2, FBF-2 RBD (Caenorhabditis elegans, UniProt Q09312 164-575); conditions: protein: recombinant; tags: none (His6-SUMO removed with TEV protease); label: 3'-Cy5
T2 sequence: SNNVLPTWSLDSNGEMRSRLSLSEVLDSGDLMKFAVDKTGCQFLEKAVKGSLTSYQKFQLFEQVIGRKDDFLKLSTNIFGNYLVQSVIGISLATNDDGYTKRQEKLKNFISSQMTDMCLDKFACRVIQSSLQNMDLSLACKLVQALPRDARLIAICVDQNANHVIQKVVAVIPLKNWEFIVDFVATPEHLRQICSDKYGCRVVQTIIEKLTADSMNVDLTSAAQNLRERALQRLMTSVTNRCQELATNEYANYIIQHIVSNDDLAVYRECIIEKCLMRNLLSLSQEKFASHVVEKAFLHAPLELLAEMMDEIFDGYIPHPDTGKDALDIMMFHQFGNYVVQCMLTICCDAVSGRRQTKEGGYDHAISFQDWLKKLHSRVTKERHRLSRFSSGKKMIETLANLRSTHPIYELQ

FBF-2 RBD+CT Loop6A = target: T3, FBF-2 RBD+CT Loop6A (Caenorhabditis elegans, UniProt Q09312 164-632, E592A;D594A;E597A;E599A;E604A;E605A); conditions: protein: recombinant; tags: none (His6-SUMO removed with Ulp1); label: 3'-Cy5
T3 sequence: T1 sequence with E429A, D431A, E434A, E436A, E441A, E442A

FBF-2 RBD+CT L610A = target: T4, FBF-2 RBD+CT L610A (Caenorhabditis elegans, UniProt Q09312 164-632, L610A); conditions: protein: recombinant; tags: none (His6-SUMO removed with Ulp1); label: 3'-Cy5
T4 sequence: T1 sequence with L447A

Binder: AUCAUGUGCCAUAC (ssRNA) [gld-1 FBEa RNA (EMSA)]
- Kd (FBF-2 RBD+CT): 334 ± 61 nM
- Kd (FBF-2 RBD): 70 ± 23 nM
- Kd (FBF-2 RBD+CT Loop6A): 101 ± 21 nM
- Kd (FBF-2 RBD+CT L610A): 51 ± 26 nM
